The test has as its target recombinant human integrin α5β1 (human) (UniProt P08648).
UniProt P08648, sequence (P08648 42-1049, chain 1 of 2): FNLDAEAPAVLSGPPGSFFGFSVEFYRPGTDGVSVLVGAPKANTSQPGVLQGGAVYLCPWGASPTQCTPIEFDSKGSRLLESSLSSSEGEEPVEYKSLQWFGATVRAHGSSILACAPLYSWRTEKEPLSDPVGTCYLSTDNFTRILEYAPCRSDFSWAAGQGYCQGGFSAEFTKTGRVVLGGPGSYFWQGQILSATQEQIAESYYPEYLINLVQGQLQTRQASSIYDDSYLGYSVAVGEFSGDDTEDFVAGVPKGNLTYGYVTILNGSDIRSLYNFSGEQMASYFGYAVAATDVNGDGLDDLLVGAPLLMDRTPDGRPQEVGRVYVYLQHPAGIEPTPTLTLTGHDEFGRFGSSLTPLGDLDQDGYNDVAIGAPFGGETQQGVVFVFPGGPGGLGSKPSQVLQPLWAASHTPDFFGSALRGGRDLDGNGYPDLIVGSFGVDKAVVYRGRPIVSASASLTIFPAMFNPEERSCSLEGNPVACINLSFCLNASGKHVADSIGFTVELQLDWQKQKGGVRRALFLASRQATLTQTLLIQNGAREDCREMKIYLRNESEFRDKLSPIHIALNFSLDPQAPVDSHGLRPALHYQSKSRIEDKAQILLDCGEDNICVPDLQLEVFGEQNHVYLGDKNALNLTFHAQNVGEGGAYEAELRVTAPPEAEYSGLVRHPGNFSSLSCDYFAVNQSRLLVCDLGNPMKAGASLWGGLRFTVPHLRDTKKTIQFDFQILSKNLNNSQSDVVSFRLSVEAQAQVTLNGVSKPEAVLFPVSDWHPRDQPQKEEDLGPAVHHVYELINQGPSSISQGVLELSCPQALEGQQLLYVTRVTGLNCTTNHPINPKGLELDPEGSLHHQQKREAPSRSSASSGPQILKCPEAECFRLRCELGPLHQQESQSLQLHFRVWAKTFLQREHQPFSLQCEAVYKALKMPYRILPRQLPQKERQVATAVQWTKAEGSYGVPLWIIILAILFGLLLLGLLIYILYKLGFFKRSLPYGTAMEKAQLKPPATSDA
UniProt P08648, sequence (P05556 21-728, chain 2 of 2, further chain): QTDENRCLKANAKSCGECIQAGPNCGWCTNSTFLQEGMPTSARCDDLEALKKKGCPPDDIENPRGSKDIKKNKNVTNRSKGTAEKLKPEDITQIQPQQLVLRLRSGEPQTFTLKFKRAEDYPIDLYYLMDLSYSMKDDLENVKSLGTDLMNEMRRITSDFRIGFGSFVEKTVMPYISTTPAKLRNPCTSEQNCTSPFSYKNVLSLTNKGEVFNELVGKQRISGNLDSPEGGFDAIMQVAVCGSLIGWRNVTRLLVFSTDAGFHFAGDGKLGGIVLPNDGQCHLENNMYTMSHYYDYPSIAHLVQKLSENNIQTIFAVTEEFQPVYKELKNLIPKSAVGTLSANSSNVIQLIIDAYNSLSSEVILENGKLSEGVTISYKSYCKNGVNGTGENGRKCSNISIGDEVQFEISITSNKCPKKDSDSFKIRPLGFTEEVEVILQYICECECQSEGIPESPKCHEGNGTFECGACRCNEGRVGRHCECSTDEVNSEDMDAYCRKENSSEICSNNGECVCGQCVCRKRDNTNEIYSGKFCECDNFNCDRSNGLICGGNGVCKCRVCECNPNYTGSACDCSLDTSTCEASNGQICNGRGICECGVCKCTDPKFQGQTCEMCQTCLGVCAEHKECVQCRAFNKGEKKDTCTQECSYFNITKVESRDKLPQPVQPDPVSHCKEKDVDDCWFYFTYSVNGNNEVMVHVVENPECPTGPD

With “native PSG1 (pregnancy-specific glycoprotein 1) purified from the serum of pregnant women (from UniProt P11464 35-419) (natural protein)”, the reduction of adhesion of HTR8/SVneo cells to native PSG1 (30 μg/mL coated) by a neutralizing antibody to integrin α5, 21% oxygen came out at 45% and the reduction of adhesion of HTR8/SVneo cells to native PSG1 (30 μg/mL coated) by a neutralizing antibody to integrin β1, 21% oxygen came out at 90%.

The record behind these values is article PMC6912793.
